For test [1], the target named is T1, Ebola virus GP with a C-terminal polyhistidine tag (Sino Biologicals, Catalog #40442-V08B1) (Ebola virus, UniProt P87666 33-650).
T1 construct: also called EbolaGP.his; Ebola virus GP.his
Kind of test: SPR 37C, mAb captured, pH chase.

In test [2] the target is T2, Ebola virus GP, Sudan strain, on VLPs (Ebola virus, Sudan strain, UniProt Q7T9D9 33-676).
T2 construct: also called Sudan NC_006432
T2 sequence: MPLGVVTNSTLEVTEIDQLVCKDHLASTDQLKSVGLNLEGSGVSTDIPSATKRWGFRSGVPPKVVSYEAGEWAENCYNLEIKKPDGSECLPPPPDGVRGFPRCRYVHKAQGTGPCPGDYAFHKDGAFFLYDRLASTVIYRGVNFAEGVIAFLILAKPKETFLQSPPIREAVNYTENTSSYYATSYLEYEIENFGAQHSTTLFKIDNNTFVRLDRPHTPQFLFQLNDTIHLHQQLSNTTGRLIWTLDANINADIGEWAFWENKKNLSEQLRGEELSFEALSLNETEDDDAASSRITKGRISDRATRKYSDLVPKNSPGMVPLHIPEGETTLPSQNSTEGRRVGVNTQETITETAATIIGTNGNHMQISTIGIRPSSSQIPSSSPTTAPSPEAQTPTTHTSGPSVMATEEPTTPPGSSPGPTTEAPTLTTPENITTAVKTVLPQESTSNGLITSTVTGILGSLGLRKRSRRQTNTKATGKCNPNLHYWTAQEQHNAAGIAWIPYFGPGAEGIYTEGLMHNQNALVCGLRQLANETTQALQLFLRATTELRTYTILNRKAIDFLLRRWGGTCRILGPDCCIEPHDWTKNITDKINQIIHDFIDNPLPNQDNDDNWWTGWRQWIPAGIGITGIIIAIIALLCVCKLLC
The test is described as follows: MSD, VLPs coated.

Test [3] deals with T3, Ebola virus GP, Cote d'Ivoire strain, on VLPs (Ebola virus, Cote d'Ivoire strain, UniProt Q66810 33-676).
T3 construct: also called Cote d'Ivoire FJ217162; Ivory Coast
T3 sequence: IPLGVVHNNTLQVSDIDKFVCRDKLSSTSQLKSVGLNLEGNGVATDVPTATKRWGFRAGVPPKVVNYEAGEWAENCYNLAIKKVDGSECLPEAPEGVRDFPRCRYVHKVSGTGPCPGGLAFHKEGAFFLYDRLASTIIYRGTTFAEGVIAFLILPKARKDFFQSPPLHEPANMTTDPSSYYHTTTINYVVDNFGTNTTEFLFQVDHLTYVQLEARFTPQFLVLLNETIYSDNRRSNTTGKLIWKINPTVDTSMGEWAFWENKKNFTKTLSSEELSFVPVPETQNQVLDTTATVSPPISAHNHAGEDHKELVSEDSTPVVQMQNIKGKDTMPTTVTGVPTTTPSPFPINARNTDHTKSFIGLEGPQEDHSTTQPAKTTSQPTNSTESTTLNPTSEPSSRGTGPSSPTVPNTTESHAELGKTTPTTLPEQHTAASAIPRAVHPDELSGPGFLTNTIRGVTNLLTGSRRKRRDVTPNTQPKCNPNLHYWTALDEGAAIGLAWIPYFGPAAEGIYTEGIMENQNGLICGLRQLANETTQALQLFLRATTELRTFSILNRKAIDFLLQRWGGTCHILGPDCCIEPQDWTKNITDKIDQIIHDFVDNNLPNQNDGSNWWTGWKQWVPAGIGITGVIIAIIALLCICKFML
Kind of test: MSD, VLPs coated.

Test [4] addresses T1, Ebola virus GP with a C-terminal …. The test is described as follows: SPR 25C, mAb captured.
Test [5] concerns the target T4, hCNTFR.mmh (ciliary neurotrophic factor receptor.mmh) (human (printed as hCNTFR), UniProt P26992 23-342).
T4 construct: also called negative control protein; not shown: mmh (myc-myc-hexahistidine) tag
T4 sequence: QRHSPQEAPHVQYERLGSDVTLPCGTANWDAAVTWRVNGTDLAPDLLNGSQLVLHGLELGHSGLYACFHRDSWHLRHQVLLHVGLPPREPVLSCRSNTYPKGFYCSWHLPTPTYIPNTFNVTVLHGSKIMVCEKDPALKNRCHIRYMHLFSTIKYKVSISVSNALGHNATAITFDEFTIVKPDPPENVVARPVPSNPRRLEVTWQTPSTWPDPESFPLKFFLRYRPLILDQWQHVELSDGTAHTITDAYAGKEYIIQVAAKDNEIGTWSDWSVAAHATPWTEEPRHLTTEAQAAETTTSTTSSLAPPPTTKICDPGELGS
The test is described as follows: BLI, mAb captured, 25C. (In BLI a coated tip is dipped into the sample, and binding shifts an interference pattern.)

Test [6] addresses T1, Ebola virus GP with a C-terminal …. The test is described as follows: SPR 37C, mAb captured.
For test [7], the target named is Ebola virus GP, Zaire 2014 strain, on VLPs (pseudoparticles) (Ebola virus, Zaire.2014 strain). The test is described as follows: cell-based or functional assay.

Where a chain is given by its changes, count along the chain named. Bounds are passed on as bounds.

B1: H1H17193P (antibody, V domains shown)
VH: QVQLVESGGGVVQPGRSLRLSCAASGFTFSSYGIHWVRQAPGKWLEWVAFIWFDGSNKYYADSVKGRFTISRDDSKNTLYLQMNSLRAEDTAVYYCARDGEIFGVLISSDAFDIWGQGTMVTVSS
VL: DIQMTQSPSSLSASVGDRVTITCRASRGIRNDLGWFQQKPGKAPKRLIYVASNLQSGVPSRFSGSGSGTEFTLTISSLQPEDFATYYCLQHNSYPITFGQGTRLEIK
For the molecule B1, in test [1], the “t½ ratio pH 7.4/pH 5.0” value worked out at 0.8 and the “t½ ratio pH 7.4/pH 6.0” value is 1.1. The binding result in test [2] is listed as “no binding”. In addition, the binding result in test [3] was “no binding”. In test [4], the affinity, expressed as Kd, was 23.6 nM; the koff – broadly, a measure of how fast the partners let go of each other – stood at 0.000108 s⁻¹; the kon – broadly, a measure of how fast the partners come together – was found to be 4580 M⁻¹ s⁻¹; the t½ (as a rule, the time needed for the level to fall by half in the phase considered) was 107 min. Also, the binding result in test [5] is given as “no binding (tested: below 0.10 nm at 300 nM)”. In addition, in test [6], binding was put at a Kd of 31.8 nM, the koff stood at 0.000503 s⁻¹, the kon came to 15800 M⁻¹ s⁻¹ and the t½ was found to be 22.9 min.

B2: H1H17196P (antibody, V domains shown)
VH: EVQLVESGGGLVQPGGSLRLSCAASGFTFRSYDMHWVRQGSGKGLEWVSAIGTAGDTYYLGSVKGRFTISRENAKNSLYLQMNSLRAGDTAVYYCARAWFGDVFLDYWGQGTLVTVSS
VL: EIVMTQSPATLSVSPGERATLSCRASQSVSSNLAWYQQKPGQAPRLLIYGASTRATGIPARFSGSGSGTEFTLTISSLQSEDFAGYYCQQYNNRLTFGGGTKVEIK
As to B2, in test [1], the “t½ ratio pH 7.4/pH 5.0” value worked out at 1 and the “t½ ratio pH 7.4/pH 6.0” value is 1. For the same molecule, the binding result in test [2] is listed as “no binding”. Also, in test [3], the binding result was “no binding”. For the same molecule, in test [4], the Kd (as a rule, the concentration at which binding is half-saturated) is not above 0.391 nM; the koff was not above 1e-05 s⁻¹; the kon is 25600 M⁻¹ s⁻¹; the t½ is not below 1160 min. Moreover, the binding result in test [5] is “no binding (tested: below 0.10 nm at 300 nM)”. In test [6], binding was characterised by a dissociation constant (Kd) of 0.317 nM, the koff is not above 1e-05 s⁻¹, the kon came out at 31600 M⁻¹ s⁻¹ and the t½ was not below 1160 min.

B3: H2aM17358N (antibody, V domains shown)
VH: EVQLVESGGGLVQPGGSLRLSCAASGFTFSTYEMNWVRQAPGKGLEWVSYSSSSGRTIYYADSVKGRFTISRDNAKNSLFLQMNSLRAEDTAVYYCARPSSIETLLRNQYHYGVDVWGQGTTVTVSS
VL: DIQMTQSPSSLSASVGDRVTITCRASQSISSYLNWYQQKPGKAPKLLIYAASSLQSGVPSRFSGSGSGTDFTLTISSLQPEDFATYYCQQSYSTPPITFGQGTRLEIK
notes: also called HCAF12C05-14
Turning to B3, in test [1], the “t½ ratio pH 7.4/pH 5.0” value worked out at 0.4 and the “t½ ratio pH 7.4/pH 6.0” value came to 0.7. For the same molecule, the “Zaire 2014 VLP neutralization IC50” value in test [7] was 4.68 nM. Also, in test [4], the Kd came out at 623 nM, the koff was determined as 0.000201 s⁻¹, the kon came out at 322 M⁻¹ s⁻¹ and the t½ was determined as 57.5 min. In test [6], this molecule returned a Kd of 52.8 nM, a koff of 0.000567 s⁻¹, an on-rate constant (kon) of 10700 M⁻¹ s⁻¹ and a t½ of 20.4 min.

B4: H2aM17360N (antibody, V domains shown)
VH: B3 VH with T31S, S51I, R56S, I58K, F80Y, E103P, T104A, V114M
VL: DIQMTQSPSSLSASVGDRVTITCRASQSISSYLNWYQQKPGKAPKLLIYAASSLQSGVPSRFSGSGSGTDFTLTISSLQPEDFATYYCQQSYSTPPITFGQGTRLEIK
notes: also called HCAF12G09-07
Consider B4, for which, in test [1], the “t½ ratio pH 7.4/pH 5.0” value turned out to be 0.5 and the “t½ ratio pH 7.4/pH 6.0” value was 0.2. Also, the “Zaire 2014 VLP neutralization IC50” value in test [7] was determined as 3.75 nM. In test [4], this molecule returned a dissociation constant (Kd) of 0.463 nM, a koff of 1.06e-05 s⁻¹, a kon of 23000 M⁻¹ s⁻¹ and a t½ of 1090 min. Further, in test [6], the Kd stood at 13.9 nM, the koff is 0.000337 s⁻¹, the kon came out at 24300 M⁻¹ s⁻¹ and the t½ came out at 34.3 min.

B5: H1M17354N (antibody, V domains shown)
VH: QVQLVQSGAEVKKPGASVKVSCKASGYTFTSYYMHWVRQAPGQGLEWLGIINPSGGSTSYAQKFQGRVTMTRDTSTSTVYMELSSLRSEDTAVYYCARETGEAGEVFNYWGQGTQVTVSS
VL: DIQMTQSPSSLSASVGDRVTITCRASQIISRYLNWYQHKPGKAPKVLIYAASTLQSGVPSRFSGSGSGTDFTLTISSLQPEDFATYYCQQSYSTPPITFGQGTRLEIK
notes: also called HCAF05C08-22
B5: in test [1], the “t½ ratio pH 7.4/pH 5.0” value is 1.3 and the “t½ ratio pH 7.4/pH 6.0” value came out at 1.3. The binding result in test [2] was “no binding”. The binding result in test [3] was “no binding”. In test [4], this molecule registered a Kd of 63.9 nM, a koff of 0.00316 s⁻¹, a kon of 49400 M⁻¹ s⁻¹ and a t½ of 3.7 min. Further, the binding result in test [5] is “no binding (tested: below 0.10 nm at 300 nM)”. In test [6], the dissociation constant Kd was 113 nM, the koff amounted to 0.00573 s⁻¹, the kon came to 50800 M⁻¹ s⁻¹ and the t½ stood at 2 min.

B6: H1H17199P (antibody, V domains shown)
VH: EVQLVESGGGLVQPGGSLRLSCAASGFTFSDHYMVWVRQAPGKGLEWVGRTRNKANSYSTEYAASVKGRFTISRDDSKKSLYLQMNSLKTEDTAVYYCARGGETLWFGESNYGMDVWGQGTTVTVSS
VL: EIVLTQSPDTLSLSPGERATLSCRASQSVSSTYLAWYQQKPGQAPSLLIYGASSRATGIPDRFSGSGSGTDFTLTISRLEPEDFAVYYCQQYGRSPLTFGGGTKVEIK
In the case of B6, in test [1], the “t½ ratio pH 7.4/pH 5.0” value was found to be 0.1 and the “t½ ratio pH 7.4/pH 6.0” value was determined as 0.4. Also, the binding result in test [2] was “no binding”. Moreover, in test [3], the binding result was “no binding”. In test [4], this molecule came in with a Kd of 18.9 nM, a koff of 0.000236 s⁻¹, a kon of 12500 M⁻¹ s⁻¹ and a t½ of 49 min. Moreover, the binding result in test [5] is listed as “no binding (tested: below 0.10 nm at 300 nM)”. In addition, in test [6], the Kd stood at 42.2 nM, the koff was found to be 0.00128 s⁻¹, the kon was determined as 30400 M⁻¹ s⁻¹ and the t½ stood at 9 min.

(Values after patent US20160215040A1 (Regeneron, published 2016).)
